Assay [1] addresses Human CD3e (22-118) Flag_chLys_avi (human). The experiment in a line: SPR (Biacore T200), IgG captured on MabSelect SuRe, hCD3e analyte 4.1-999 nM, 1:1 fit. Background: In SPR one partner is held on a chip, and binding of the other changes the refractive index at the surface.
The target of assay [2] is T1, human CD3 expressed on cells (Jurkat cells; human lymphocytes/PBMCs) (human, UniProt P07766 23-207).
T1 construct: on the cells it stands in the CD3/TCR complex; also called human CD3 epsilon; CD3 positive Jurkat cells
Put plainly: flow cytometry on CD3 positive Jurkat cells, IgG titrated, anti-human F(ab')2-PE detection. In general terms: Flow cytometry measures light scatter and fluorescence of single cells or particles in a stream.

Assay [3] deals with T2, recombinant human CD3e (22-49)-Fc2 (K105-K330) (human).
T2 construct: also called hCD3e(22-49)_Fc2(K105-K330); hCD3 epsilon 22-49/Fc
The experiment in a line: ELISA, 5 nM antigen coated, IgG titrated, anti-human F(ab')2-AP detection. A general note: ELISA stands for enzyme-linked immunosorbent assay.

Assay [4] concerns the target T3, cynomolgus CD3 expressed on cynomolgus lymphocytes/PBMCs (cynomolgus monkey, UniProt Q95LI5 22-198).
T3 construct: also called cynomolgus CD3 epsilon
The experiment in a line: flow cytometry on cynomolgus PBMCs (lymphocyte gate), detection with anti-human F(ab')2-PE.

Assay [5] has as its target T4, recombinant cynomolgus CD3e (22-49)-Fc2(K105-K330) (cynomolgus monkey).
T4 construct: also called cyCD3e(22-49)_Fc2(K105-K330); cyCD3 epsilon 22-49/Fc
The experiment in a line: ELISA, 1 nM antigen coated, IgG titrated, anti-human F(ab')2-AP detection.

Assay [6] concerns the target Human CD3e (22-118) Flag_chLys_avi (human). Put plainly: SPR (Biacore T200), IgG captured on MabSelect SuRe, hCD3e analyte, 1:1 fit; comment: only conc. 37-333 nM used for evaluation.
Assay [7] shares this target. Put plainly: SPR (Biacore T200), IgG captured on MabSelect SuRe, hCD3e analyte 4.1-999 nM, 1:1 fit; comment: slightly heterogeneous binding.
Assay [8] shares this target. Put plainly: SPR (Biacore T200), IgG captured on MabSelect SuRe, hCD3e analyte 4.1-999 nM, 1:1 fit; comment: heterogeneous binding.
Assay [9] has the same target. The experiment in a line: SPR (Biacore T200), IgG captured on MabSelect SuRe, hCD3e analyte, 1:1 fit; comment: weak binding signals, only 333 nM & 999 nM evaluated.

T1 sequence (P07766 23-207): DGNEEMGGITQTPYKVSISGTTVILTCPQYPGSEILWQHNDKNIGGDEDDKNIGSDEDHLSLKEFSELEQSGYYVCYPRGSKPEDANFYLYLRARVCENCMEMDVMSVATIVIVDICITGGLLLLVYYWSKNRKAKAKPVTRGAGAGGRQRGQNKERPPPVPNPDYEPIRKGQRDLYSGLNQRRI
Chain of Human CD3e (22-118) Flag_chLys_avi (human) (chain, as listed by the source limits assumed): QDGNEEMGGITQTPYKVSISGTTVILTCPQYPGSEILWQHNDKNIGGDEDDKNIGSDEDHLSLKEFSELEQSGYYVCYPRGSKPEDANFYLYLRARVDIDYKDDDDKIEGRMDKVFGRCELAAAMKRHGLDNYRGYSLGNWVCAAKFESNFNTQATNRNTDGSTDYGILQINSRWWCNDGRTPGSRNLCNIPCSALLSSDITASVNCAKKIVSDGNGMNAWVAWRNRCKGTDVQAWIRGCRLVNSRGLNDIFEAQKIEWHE
T3 sequence (Q95LI5 22-198): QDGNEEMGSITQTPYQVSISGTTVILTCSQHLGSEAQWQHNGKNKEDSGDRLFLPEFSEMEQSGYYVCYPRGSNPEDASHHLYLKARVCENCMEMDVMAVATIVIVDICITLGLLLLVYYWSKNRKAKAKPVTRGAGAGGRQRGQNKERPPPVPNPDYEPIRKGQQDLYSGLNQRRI

B1: SP34 (m/h chimeric) IgG (antibody, V domains shown)
VH: EVQLVESGGGLVQPKGSLKLSCAASGFTFNTYAMNWVRQAPGKGLEWVARIRSKYNNYATYYADSVKDRFTISRDDSQSILYLQMNNLKTEDTAMYYCVRHGNFGNSYVSWFAYWGQGTLVTVSS
VL: QAVVTQESALTTSPGETVTLTCRSSTGAVTTSNYANWVQEKPDHLFTGLIGGTNKRAPGVPARFSGSLIGDKAALTITGAQTEDEAIYFCALWYSNLWVFGGGTKLTVLG
notes: Murine SP34 variable domains tested as mouse/human chimeric IgG; also called SP34 IgG (m/h chimera)
What is called Kd is the equilibrium constant for the complex coming apart. The low end stands for tighter binding, the high end for weaker binding. As a reminder, the koff is the rate constant with which the complex falls apart. Read a high koff as a short-lived complex. As usually defined, the kon is the second-order rate constant of association. As usually defined, the EC50 is the concentration at which the effect is half-maximal. The EC50 (read off the curve) is the concentration giving half of the maximal effect. In turn, B1 returned a Kd in assay [1] of 1.7 nM. Moreover, in assay [1], the koff was 0.000835 s⁻¹. This molecule had a kon in assay [1] of 487000 M⁻¹ s⁻¹. Also, the EC50 worked out at 1.4 nM in assay [2], 0.39 nM in [3] and 0.15 nM in [5]. Moreover, the “EC50 (read off the curve)” value in assay [4] was about 3 nM.

B2: mAb#Nürnberg (antibody, human IgG1, lambda)
heavy: not shown
light: QTVVTQEPSLTVSPGGTVTLTCRSSTGAVTTSNYANWVQQKPGQAPRGLIGGTNKRAPGTPARFSGSLLGGKAALTLSGVQPEDEAEYYCALWYSNLWVFGGGTKLTVLGQPKAAPSVTLFPPSSEELQANKATLVCLISDFYPGAVTVAWKADSSPVKAGVETTTPSKQSNNKYAASSYLSLTPEQWKSHRSYSCQVTHEGSTVEKTVAPTECS
For B2, the EC50 in [2] came out at 1 nM. Also, in [3], the EC50 was found to be 0.34 nM. In addition, in [6], the affinity, expressed as Kd, was 48 nM; the koff turned out to be 0.00387 s⁻¹; the kon amounted to 80000 M⁻¹ s⁻¹. In assay [5], the half-maximal effective concentration (EC50) was found to be 0.21 nM.

B3: mAb#Köln (antibody, human IgG1, lambda)
heavy: not shown
light: ELVVTQEPSLTVSPGGTVTLTCRSSTGAVTTSNYANWVQQKPGQAPRGLIGGTNKRAPGTPARFSGSLLGGKAALTLSGVQPEDEAEYYCALWYSNLWVFGGGTKLTVLGQPKAAPSVTLFPPSSEELQANKATLVCLISDFYPGAVTVAWKADSSPVKAGVETTTPSKQSNNKYAASSYLSLTPEQWKSHRSYSCQVTHEGSTVEKTVAPTECS
Molecule B3 had an EC50 in [2] of 1.8 nM. Moreover, the EC50 in assay [3] was 0.31 nM. In assay [7], this molecule gave a Kd of 51 nM, a koff of 0.00386 s⁻¹ and a kon of 76200 M⁻¹ s⁻¹. Moreover, the EC50 in [5] was 0.2 nM.

B4: mAb#Freiburg (antibody, human IgG1, lambda, V domains shown)
VH: EVQLVESGGGLVKPGGSLRLSCAASGFTFNTYAMNWVRQAPGKGLEWVGRIRSKYNNYATYYADSVKDRFTISRDDSKNTLYLQMNSLKTEDTAVYYCTTHGNFGNSYVSWFAYWGQGTLVTVSS
VL: QTVVTQEPSLTVSPGGTVTLTCRSSTGAVTTSNYANWVQQKPGQAPRGLIGGTNKRAPGTPARFSGSLLGGKAALTLLGAQPEDEAEYYCALWYSNLWVFGGGTKLTVLG
The molecule B4 gave an EC50 in [2] of 10.7 nM. For the same molecule, the EC50 in [3] came to 0.91 nM. In [8], this molecule had a Kd of 130 nM, a koff of 0.00467 s⁻¹ and a kon of 35200 M⁻¹ s⁻¹. The “EC50 (read off the curve)” value in [4] was about 10 nM. Further, the EC50 in assay [5] came to 1.26 nM.

B5: mAb#Gladbach (antibody, human IgG1, lambda, V domains shown)
VH: QVQLVESGGGLVKPGGSLRLSCAASGFTFNTYAMNWIRQAPGKGLEWVSRIRSKYNNYATYYADSVKDRFTISRDNAKNSLYLQMNSLRAEDTAVYYCVRHGNFGNSYVSWFAYWGQGTLVTVSS
VL: QTVVTQEPSLTVSPGGTVTLTCRSSTGAVTTSNYANWVQQKPGQAPRGLIGGTKFLAPGTPARFSGSLLGGKAALTLSGVQPEDEAEYYCALWYSNLWVFGGGTKLTVLG
As for B5, the EC50 in [2] was 1.4 nM. In assay [3], the EC50 turned out to be 0.38 nM. In assay [7], this molecule came in with a Kd of 54 nM, a koff of 0.00385 s⁻¹ and a kon of 71800 M⁻¹ s⁻¹. Besides, the “EC50 (read off the curve)” value in assay [4] was about 6 nM. In addition, in assay [5], the EC50 was 0.21 nM.

B6: mAb#Mainz (antibody, human IgG1, lambda, V domains shown)
VH: QVQLVESGGGLVKPGGSLRLSCAASGFTFNTYAMNWIRQAPGKGLEWVSRIRSKYNNYATYYADSVKDRFTISRDNAKNSLYLQMNSLRAEDTAVYYCVRHGNFGNSYVSWFAYWGQGTLVTVSS
VL: QAVVTQEPSLTVSPGGTVTLTCRSSTGAVTTSNYANWVQQKPGQAPRGLIGGTNKRAPWTPARFSGSLLGGKAALTITGAQAEDEADYYCALWYSNLWVFGGGTKLTVLG
For the molecule B6, the EC50 in [2] came out at 9.4 nM. In addition, the EC50 in assay [3] worked out at 1.21 nM. In assay [9], the Kd turned out to be 600 nM, the koff came out at 0.00847 s⁻¹ and the kon worked out at 14200 M⁻¹ s⁻¹. Moreover, in assay [5], the EC50 turned out to be 1.53 nM.

B7: mAb#München (antibody, human IgG1, lambda, V domains shown)
VH: EVQLVESGGGLVKPGGSLRLSCAASGFTFNTYAMNWVRQAPGKGLEWVGRIRSKYNNYATYYADSVKDRFTISRDDSKNTLYLQMNSLKTEDTAVYYCTTHGNFGNSYVSWFAYWGQGTLVTVSS
VL: QTVVTQEPSLTVSPGGTVTLTCRSSTGAVTTSNYANWVQQKPGQAPRGLIGGTKFLAPGTPARFSGSLLGGKAALTLLGAQPEDEAEYYCALWYSNLWVFGGGTKLTVLG
notes: also called Munchen
B7 registered an EC50 in assay [2] of 6.6 nM. The EC50 in assay [3] is 0.6 nM. Besides, in [7], the Kd was 78 nM, the koff amounted to 0.00658 s⁻¹ and the kon is 84000 M⁻¹ s⁻¹. Further, in assay [4], the “EC50 (read off the curve)” value was about 20 nM. In addition, in [5], the EC50 came out at 1.43 nM.

B8: mAb#Bremen (antibody, human IgG1, lambda, V domains shown)
VH: EVQLVESGGGLVKPGGSLRLSCAASGFTFNTYAMNWVRQAPGKGLEWVGRIRSKYNNYATYYADSVKDRFTISRDDSKNTLYLQMNSLKTEDTAVYYCTTHGNFGNSYVSWFAYWGQGTLVTVSS
VL: QTVVTQEPSLTVSPGGTVTLTCRSSTGAVTTSNYANWVQQKPGQAPRGLIGGTKFLAPGTPARFSGSLLGGKAALTLSGVQPEDEAEYYCALWYSNLWVFGGGTKLTVLG
Consider B8, for which the results for the EC50 in [2], in assay [3] and in [5] were 6.3 nM, 1.1 nM and 0.8 nM, respectively. The molecule further came in with a Kd in assay [8] of 74 nM. In assay [8], this molecule gave a koff of 0.00479 s⁻¹. In assay [8], the kon turned out to be 65000 M⁻¹ s⁻¹. Besides, the “EC50 (read off the curve)” value in assay [4] was about 20 nM.
